Assay results from US20050142568A1 (published 2005).

T1: GST-CRN-3 (C. elegans, UniProt G5EBX6 1-876)
T1 construct: also called CRN-3 GST-fusion protein; not shown: glutathione S-transferase tag encoded by vector pGEX4T-2
T1 sequence: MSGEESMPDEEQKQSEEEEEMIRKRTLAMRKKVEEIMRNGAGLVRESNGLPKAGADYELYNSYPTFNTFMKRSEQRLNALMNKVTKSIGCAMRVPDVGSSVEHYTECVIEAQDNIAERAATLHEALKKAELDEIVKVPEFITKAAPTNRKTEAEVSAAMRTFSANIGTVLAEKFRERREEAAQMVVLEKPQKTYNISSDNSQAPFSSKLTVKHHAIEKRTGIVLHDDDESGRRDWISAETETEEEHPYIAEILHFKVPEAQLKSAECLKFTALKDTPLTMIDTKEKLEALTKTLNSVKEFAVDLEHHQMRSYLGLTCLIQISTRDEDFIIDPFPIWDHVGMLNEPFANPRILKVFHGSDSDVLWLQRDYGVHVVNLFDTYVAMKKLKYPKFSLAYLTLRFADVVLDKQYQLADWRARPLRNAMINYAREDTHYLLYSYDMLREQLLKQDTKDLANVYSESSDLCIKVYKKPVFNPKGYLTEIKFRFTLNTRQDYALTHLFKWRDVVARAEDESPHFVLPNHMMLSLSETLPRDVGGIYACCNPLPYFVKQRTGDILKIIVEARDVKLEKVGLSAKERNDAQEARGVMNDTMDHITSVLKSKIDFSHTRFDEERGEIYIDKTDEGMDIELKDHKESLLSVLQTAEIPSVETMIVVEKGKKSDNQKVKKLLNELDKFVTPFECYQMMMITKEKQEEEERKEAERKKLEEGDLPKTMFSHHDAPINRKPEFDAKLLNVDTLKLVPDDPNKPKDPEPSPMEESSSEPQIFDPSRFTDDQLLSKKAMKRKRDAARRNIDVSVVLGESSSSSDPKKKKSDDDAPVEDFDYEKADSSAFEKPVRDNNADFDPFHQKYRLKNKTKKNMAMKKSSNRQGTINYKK

T2: ^35S-Methionine labeled CRN-3 (C. elegans, UniProt G5EBX6 1-876)
T2 sequence: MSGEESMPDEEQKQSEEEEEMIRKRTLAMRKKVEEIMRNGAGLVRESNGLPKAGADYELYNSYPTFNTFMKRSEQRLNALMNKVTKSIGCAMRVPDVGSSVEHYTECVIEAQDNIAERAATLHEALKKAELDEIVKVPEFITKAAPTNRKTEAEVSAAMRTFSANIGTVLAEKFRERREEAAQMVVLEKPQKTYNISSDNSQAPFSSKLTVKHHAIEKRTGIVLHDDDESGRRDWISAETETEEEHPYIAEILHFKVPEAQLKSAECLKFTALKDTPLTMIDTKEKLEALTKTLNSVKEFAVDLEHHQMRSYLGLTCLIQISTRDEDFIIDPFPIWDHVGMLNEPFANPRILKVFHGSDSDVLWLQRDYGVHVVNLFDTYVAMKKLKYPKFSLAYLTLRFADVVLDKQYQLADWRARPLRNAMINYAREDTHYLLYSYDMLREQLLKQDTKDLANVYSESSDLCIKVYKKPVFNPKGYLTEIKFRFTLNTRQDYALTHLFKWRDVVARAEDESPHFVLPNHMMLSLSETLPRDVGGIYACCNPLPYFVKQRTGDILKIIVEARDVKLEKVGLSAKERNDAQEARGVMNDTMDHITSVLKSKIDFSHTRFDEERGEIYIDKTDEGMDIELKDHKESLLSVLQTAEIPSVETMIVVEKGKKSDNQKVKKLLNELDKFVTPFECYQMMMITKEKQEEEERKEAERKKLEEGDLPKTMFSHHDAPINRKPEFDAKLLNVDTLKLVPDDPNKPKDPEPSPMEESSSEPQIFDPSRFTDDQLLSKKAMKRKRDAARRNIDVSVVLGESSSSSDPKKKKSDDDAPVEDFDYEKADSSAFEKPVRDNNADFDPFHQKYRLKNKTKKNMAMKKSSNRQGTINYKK

B1: ^35S-Methionine labeled CRN-6 (enzyme, C. elegans, UniProt P34508-2 18-373, looked up)
chain: AYQCKDNNGSNVDWFVFYKLPHLWNHPDNVPISNGTGFLYFDVNNKNWKLMPQGMDVENNAVYYTLQQYYNSNMNTTFSYMYNDEWPDSTIWSNSSGHAKGVTVFDQYTGFWMIHSIPKFPSKDMFRFPSNAHYYGQMGICISYNTVSLATIAQQLFYYNTFTYQFNLPQSFANQFPVLSQLKNKEYNKSPPLTSTKVLKSLGGQHFRHFAKTGEWGKDLYSDFVGPTLKSSIKVETWNHQSGDEYNLPSVCDPNHVQSTMSAKYIRLPYAIDYSSYEDHSKFVVAYSESSSKPPIPYVCIGDINRQSHQIHRGGGTMCIYDQETYFQFANIISETVPCTKATAEKVDALANNRYF
modifications: 35S-methionine labelled
B2: GST-NUC-1 (other, C. elegans, UniProt Q17778 22-375, looked up)
chain: AFSCKDQSGNDVDWFAVYKMPIEKDDGSVTGLAGGVAWYYVDVNKKGTLTPSAKTLDDNDQAIAYTLQQYYDKQNDKTIFHVMYNDEPWGSKSTSGIKLEEILSNRVYSNYTHEDDSTSTAFGHTKGTIFFDGTSGVWLVHSVPLFPNPTKYEYPVSGHDYGQTMLCMTFKYAQLKSIGTQLFFNRPNIYSSNLPTNMAADNADLAKAIAGQYQKGQPFQSVIELETMAGYSFTNFAKSKEFNADLYDTLVAPTLKTDLVVETWRRGSEIPLDCKLTYHANDALSIHVGSTTAFSYTKDHSKMAHSADMTKPWVCIGDINRMTSQYVRGGGTTCISSSFLWKAYSVIATQNNCA
notes: also called NUC-1 GST-fusion protein; not shown: glutathione S-transferase tag encoded by vector pGEX4T-2
B3: GST-CRN-1 (other, C. elegans, UniProt Q9N3T2 21-382, looked up)
chain: NEMKAFFGRTVAIDASMCLYQFLIAVRQDGSQLQSEDGETTSHLMGMLNRTVRMFENGVKPVYVFDGKPPDMKGGELEKRSERRAEAEKALTEAKEKGDVKEAEKFERRLVKVTKQQNDEAKRLLGLMGIPVVEAPCEAEAQCAHLVKAGKVFGTVTEDMDALTFGSTVLLRHFLAPVAKKIPIKEFNLSLALEEMKLSVEEFIDLCILLGCDYCGTIRGVGPKKAVELIRQHKNIETILENIDQNKYPPPEDWPYKRARELFLNPEVTKPEEVELTWKEADVEGVIQFLCGEKNFNEERIRNALAKLKTSRKSGTQGRIDSFFGNSTKVTCVTAATKRKAEEAEKAKKGAKKGGPPKKRAK
notes: also called CRN-1 GST-fusion protein; not shown: glutathione S-transferase tag encoded by vector pGEX4T-2

Assays:
Experiment in all cases: GST pull-down, 35S-Met protein vs GST fusion; - means no detectable binding (footnote a)
GST-CRN-1 = biological target: B3
Method: (§1) GST fusion protein pull-down assays were performed as described in J. Parrish, H. Metters, L. Chen, D. Xue, Proc. Natl. Acad. Sci. U.S.A. 97, 11916 (2000). Purified GST or GST-fusion proteins (5 μg each) immobilized on glutathione sepharose beads were incubated with ³⁵S-Methionine labeled proteins at 4° C. for 2 hours. The beads were washed extensively and the bound proteins were resolved on a 12% SDS-PAGE and visualized by autoradiography. [0103] cDNAs corresponding to the ORFs were cloned into the pPD129.36 vector via its Nhe I and Xho I sites or the Xho I site alone. Full-length cDNAs were subcloned into the pGEX4T-2 vector for generating GST fusion proteins and for further protein purification and into the pcDNA3.1 vector for in vitro transcription/translation experiments.
(§2) ^aInteractions were evaluated relative to background binding of ³⁵S-Methionine labeled Luciferase to GST-fusion proteins and ³⁵S-Methionine labeled proteins to GST. “−” indicates no detectable binding, “+” indicates an interaction consistently observed above background levels, and “++” indicates a strong interaction. ^bBecause ³⁵S-Methionine labeled CRN-1 binds GST tightly, it was not possible to evaluate interactions between ³⁵S-CRN-1 and various GST-fusion proteins. ND, not determined.

GST-CRN-3 = biological target: T1, GST-CRN-3
Method: as §1, §2

GST-CRN-6 = biological target: T3, GST-CRN-6 (C. elegans, UniProt P08515 1-218 = GST; P34508 1-373)
T3 construct: Two crn-6 cDNAs (700 bp and 1.1 kb) were isolated; the longer one made the GST fusion; also called CRN-6 GST-fusion protein
Method: as §1, §2

GST-NUC-1 = biological target: B2
Method: as §1, §2

[1] = biological target: B1
Method: as §1, §2

[2] = biological target: T4, GST (glutathione-S transferase alone) (UniProt P08515 1-218 = GST)
T4 construct: Purified GST used as negative control bait on glutathione sepharose beads; also called OST
T4 sequence (P08515 whole entry): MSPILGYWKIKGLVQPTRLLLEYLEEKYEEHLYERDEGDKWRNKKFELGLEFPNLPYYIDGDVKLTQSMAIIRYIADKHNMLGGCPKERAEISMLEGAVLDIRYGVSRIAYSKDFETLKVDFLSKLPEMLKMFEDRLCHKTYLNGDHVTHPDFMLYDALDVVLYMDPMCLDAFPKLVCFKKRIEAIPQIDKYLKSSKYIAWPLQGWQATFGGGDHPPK
Method: as §1, §2

[3] = biological target: T2, ^35S-Methionine labeled CRN-3
Method: as §1, §2

binding result (GST-CRN-1)	binding result (GST-CRN-3)	binding result (GST-CRN-6)	Binder	other results
no binding	no binding	no binding	B1	–
–	no binding	no binding	^35S-Methionine labeled CRN-4 (enzyme, C. elegans, UniProt Q10905 1-298, looked up, 35S-methionine labelled) MAYQHCPFDTLLILDFETTSDAANQDYPCEVIQFAIVAYDVPNDKIREDISFNKYVKPVLNRTLTKNCVDFTGIPQRSIDTADTFDVVYEQFQQWLITLGLEEGKFAFVCDSRQDLWRIAQYQMKLSNIQMPAFFRQYINLYKIFTNEMDRMGPKELSATTNIGKMNEYYDLPTIGRAHDAMDDCLNIATILQRMINMGAKVTVNELLTCCASWRRQPLVYNKEWRSSFMDAGKIFERVLPLVVTTIRAGDFRLEMYGVCRYCRKGMDVCGTSHQQTPHDLYKNEEDPIHFAKIAGYY	–
no binding	–	no binding	^35S-Methionine labeled NUC-1 (enzyme, C. elegans, UniProt Q17778 22-375, looked up, 35S-methionine labelled) AFSCKDQSGNDVDWFAVYKMPIEKDDGSVTGLAGGVAWYYVDVNKKGTLTPSAKTLDDNDQAIAYTLQQYYDKQNDKTIFHVMYNDEPWGSKSTSGIKLEEILSNRVYSNYTHEDDSTSTAFGHTKGTIFFDGTSGVWLVHSVPLFPNPTKYEYPVSGHDYGQTMLCMTFKYAQLKSIGTQLFFNRPNIYSSNLPTNMAADNADLAKAIAGQYQKGQPFQSVIELETMAGYSFTNFAKSKEFNADLYDTLVAPTLKTDLVVETWRRGSEIPLDCKLTYHANDALSIHVGSTTAFSYTKDHSKMAHSADMTKPWVCIGDINRMTSQYVRGGGTTCISSSFLWKAYSVIATQNNCA	binding result (GST-NUC-1): no binding
–	–	–	B2	binding result [1]: no binding
no binding	–	no binding	^35S-Methionine labeled CRN-5 (enzyme, C. elegans) MAGRLREMRCELSFLKNADGSACFSQGATCIWASCSGPGDVHASKASDEAMTLDISYRANCGDNKFNVLNNIIHSTLSNAINLELFPHTTISVTVHGIQDDGSMGAVAINGACFALLDNGMPFETVFCGVLIVRVKDELIIDPTAKQEAASTGRVLFSVCKGSDGHPEVCAMDAIGHWDFIQLEAAWSLAQPSASAIFDFYKTVMKRKLSVDEQ	binding result [2]: no binding
–	–	–	GST-CRN-5 (other, also called CRN-5 GST-fusion protein; not shown: GST carrier and the linker of vector pGEX4T-2) MAGRLREMRCELSFLKNADGSACFSQGATCIWASCSGPGDVHASKASDEAMTLDISYRANCGDNKFNVLNNIIHSTLSNAINLELFPHTTISVTVHGIQDDGSMGAVAINGACFALLDNGMPFETVFCGVLIVRVKDELIIDPTAKQEAASTGRVLFSVCKGSDGHPEVCAMDAIGHWDFIQLEAAWSLAQPSASAIFDFYKTVMKRKLSVDEQ	binding result [1]: no binding
–	–	–	B3	binding result [3]: no binding
–	no binding	no binding	^35S-Methionine labeled CYP-13 (enzyme, also called ^35S-CYP-13; CPY-13) not shown	binding result (GST-NUC-1): no binding; binding result [2]: no binding
